Each block holds one substance with its values, some of them ahead of it.
Key:
[1] = target: Fcγ receptor (FcγR) on the surface of immune effector cells; assay: cell-based or functional assay
[2] = target: Construct 1 (chimeric human NaPi2b, swap in NaPi2c in 239-259) (human); assay: flow cytometry, transfected HEK293-6e cells, antibody 5 nM (footnote b)
[3] = target: Construct 2 (chimeric human NaPi2b, swap in NaPi2c in 280-301) (human); assay: as above
[4] = target: Construct 3 (chimeric human NaPi2b, swap in NaPi2c in 304-321) (human); assay: as above
[5] = target: Construct 4 (chimeric human NaPi2b, swap in NaPi2c in 341-358) (human); assay: as above
[6] = target: Construct 5 (chimeric human NaPi2b, swap in NaPi2a in 304-348) (human); assay: as above
[7] = target: Construct 6 (human NaPi2b del 317-333) (human) (UniProt O95436); assay: as above
[8] = target: Construct 7 (human NaPi2b del 317-326) (human) (UniProt O95436); assay: as above
[9] = target: Full length human NaPi2b (sodium-dependent phosphate transporter 2B, SLC34A2) (human) (UniProt O95436); assay: as above
[10] = target: Construct 1 (chimeric human NaPi2b, swap in NaPi2c in 239-259) (human); assay: flow cytometry, transfected HEK293-6e cells, antibody 50 nM (footnote b)
[11] = target: Construct 2 (chimeric human NaPi2b, swap in NaPi2c in 280-301) (human); assay: as above
[12] = target: Construct 3 (chimeric human NaPi2b, swap in NaPi2c in 304-321) (human); assay: as above
[13] = target: Construct 4 (chimeric human NaPi2b, swap in NaPi2c in 341-358) (human); assay: as above
[14] = target: Construct 5 (chimeric human NaPi2b, swap in NaPi2a in 304-348) (human); assay: as above
[15] = target: Construct 6 (human NaPi2b del 317-333) (human) (UniProt O95436); assay: as above
[16] = target: Construct 7 (human NaPi2b del 317-326) (human) (UniProt O95436); assay: as above
[17] = target: Full length human NaPi2b (sodium-dependent phosphate transporter 2B, SLC34A2) (human) (UniProt O95436); assay: as above
[18] = target: Construct 1 (chimeric human NaPi2b, swap in NaPi2c in 239-259) (human); assay: flow cytometry, transfected HEK293-6e cells, antibody 0.5 nM (footnote b)
[19] = target: Construct 2 (chimeric human NaPi2b, swap in NaPi2c in 280-301) (human); assay: as above
[20] = target: Construct 3 (chimeric human NaPi2b, swap in NaPi2c in 304-321) (human); assay: as above
[21] = target: Construct 4 (chimeric human NaPi2b, swap in NaPi2c in 341-358) (human); assay: as above
[22] = target: Construct 5 (chimeric human NaPi2b, swap in NaPi2a in 304-348) (human); assay: as above
[23] = target: Construct 6 (human NaPi2b del 317-333) (human) (UniProt O95436); assay: as above
[24] = target: Construct 7 (human NaPi2b del 317-326) (human) (UniProt O95436); assay: as above
[25] = target: Full length human NaPi2b (sodium-dependent phosphate transporter 2B, SLC34A2) (human) (UniProt O95436); assay: as above
[26] = target: human sodium-dependent phosphate transporter 2B (NaPi2b) (human) (UniProt O95436); assay: competition flow cytometry, human NaPi2b on HEK293-6e; row antibody unlabeled 100 ug/mL; competitor: labeled v23855 1 ug/mL
[27] = target: human sodium-dependent phosphate transporter 2B (NaPi2b) (human) (UniProt O95436); assay: competition flow cytometry, human NaPi2b on HEK293-6e; row antibody unlabeled 100 ug/mL; competitor: labeled v18992 (MX35) 1 ug/mL
[28] = target: human sodium-dependent phosphate transporter 2B (NaPi2b) (human) (UniProt O95436); assay: competition flow cytometry, human NaPi2b on HEK293-6e; row antibody unlabeled 100 ug/mL; competitor: labeled v18993 (lifastuzumab) 1 ug/mL
[29] = target: human sodium-dependent phosphate transporter 2B (NaPi2b) (human) (UniProt O95436); assay: competition flow cytometry, human NaPi2b on HEK293-6e; row antibody unlabeled 100 ug/mL; competitor: labeled v16955 (negative control) 1 ug/mL

Chain of Construct 1 (chimeric human NaPi2b, swap in NaPi2c in 239-259) (human) (O95436 other isoform, or with tags, fused parts or gaps mutant): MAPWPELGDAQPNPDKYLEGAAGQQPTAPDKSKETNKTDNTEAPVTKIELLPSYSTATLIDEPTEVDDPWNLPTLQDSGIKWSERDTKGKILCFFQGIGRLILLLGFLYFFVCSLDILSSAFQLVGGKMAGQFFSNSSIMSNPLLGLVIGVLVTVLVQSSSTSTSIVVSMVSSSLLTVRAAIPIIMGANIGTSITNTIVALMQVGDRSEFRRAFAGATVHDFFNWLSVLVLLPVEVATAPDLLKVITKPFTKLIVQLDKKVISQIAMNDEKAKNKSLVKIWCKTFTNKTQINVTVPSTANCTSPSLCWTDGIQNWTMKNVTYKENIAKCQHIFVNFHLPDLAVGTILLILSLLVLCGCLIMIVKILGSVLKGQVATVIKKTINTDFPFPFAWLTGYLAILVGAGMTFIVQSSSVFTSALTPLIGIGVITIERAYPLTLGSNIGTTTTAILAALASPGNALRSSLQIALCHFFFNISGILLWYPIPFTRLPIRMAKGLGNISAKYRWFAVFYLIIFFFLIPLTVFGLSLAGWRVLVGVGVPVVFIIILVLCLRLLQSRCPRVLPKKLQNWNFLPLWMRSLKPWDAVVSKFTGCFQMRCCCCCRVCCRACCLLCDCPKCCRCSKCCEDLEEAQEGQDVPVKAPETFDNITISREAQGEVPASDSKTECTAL
Chain of Construct 5 (chimeric human NaPi2b, swap in NaPi2a in 304-348) (human) (O95436 other isoform, or with tags, fused parts or gaps mutant): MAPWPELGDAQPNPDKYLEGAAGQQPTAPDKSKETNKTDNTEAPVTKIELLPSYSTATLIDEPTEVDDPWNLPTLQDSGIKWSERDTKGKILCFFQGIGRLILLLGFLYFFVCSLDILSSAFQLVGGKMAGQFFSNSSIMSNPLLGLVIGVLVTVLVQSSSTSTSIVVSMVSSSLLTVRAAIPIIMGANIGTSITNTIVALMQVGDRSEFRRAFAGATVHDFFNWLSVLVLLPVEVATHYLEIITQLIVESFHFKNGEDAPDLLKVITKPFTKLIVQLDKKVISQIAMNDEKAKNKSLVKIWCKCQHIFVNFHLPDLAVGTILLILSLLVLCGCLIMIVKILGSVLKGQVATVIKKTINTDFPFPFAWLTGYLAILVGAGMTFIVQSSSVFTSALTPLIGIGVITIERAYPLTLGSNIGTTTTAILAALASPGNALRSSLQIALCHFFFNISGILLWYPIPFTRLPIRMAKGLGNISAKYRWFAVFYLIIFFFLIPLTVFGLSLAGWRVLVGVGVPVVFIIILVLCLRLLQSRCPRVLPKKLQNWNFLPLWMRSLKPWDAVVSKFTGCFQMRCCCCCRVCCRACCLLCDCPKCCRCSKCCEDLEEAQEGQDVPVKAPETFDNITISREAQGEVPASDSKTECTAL
Chain of Construct 7 (human NaPi2b del 317-326) (human) (O95436 other isoform, or with tags, fused parts or gaps): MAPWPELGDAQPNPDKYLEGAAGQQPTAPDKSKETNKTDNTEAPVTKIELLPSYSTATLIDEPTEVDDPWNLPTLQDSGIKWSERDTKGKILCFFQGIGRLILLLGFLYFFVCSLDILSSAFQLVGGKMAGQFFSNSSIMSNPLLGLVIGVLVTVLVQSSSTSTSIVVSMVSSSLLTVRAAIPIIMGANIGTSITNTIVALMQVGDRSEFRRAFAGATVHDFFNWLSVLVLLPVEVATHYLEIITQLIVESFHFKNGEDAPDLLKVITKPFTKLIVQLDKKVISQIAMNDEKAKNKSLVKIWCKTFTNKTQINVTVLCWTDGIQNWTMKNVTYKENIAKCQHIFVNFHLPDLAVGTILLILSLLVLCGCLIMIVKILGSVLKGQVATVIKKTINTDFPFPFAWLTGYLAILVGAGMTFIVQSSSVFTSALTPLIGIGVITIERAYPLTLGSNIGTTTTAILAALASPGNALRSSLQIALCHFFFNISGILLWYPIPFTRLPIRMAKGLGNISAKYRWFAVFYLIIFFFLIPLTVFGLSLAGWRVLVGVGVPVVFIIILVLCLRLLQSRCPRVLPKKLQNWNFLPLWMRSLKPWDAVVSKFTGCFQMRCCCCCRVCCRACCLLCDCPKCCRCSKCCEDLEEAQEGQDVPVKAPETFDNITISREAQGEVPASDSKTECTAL
Chain of Construct 6 (human NaPi2b del 317-333) (human) (O95436 other isoform, or with tags, fused parts or gaps): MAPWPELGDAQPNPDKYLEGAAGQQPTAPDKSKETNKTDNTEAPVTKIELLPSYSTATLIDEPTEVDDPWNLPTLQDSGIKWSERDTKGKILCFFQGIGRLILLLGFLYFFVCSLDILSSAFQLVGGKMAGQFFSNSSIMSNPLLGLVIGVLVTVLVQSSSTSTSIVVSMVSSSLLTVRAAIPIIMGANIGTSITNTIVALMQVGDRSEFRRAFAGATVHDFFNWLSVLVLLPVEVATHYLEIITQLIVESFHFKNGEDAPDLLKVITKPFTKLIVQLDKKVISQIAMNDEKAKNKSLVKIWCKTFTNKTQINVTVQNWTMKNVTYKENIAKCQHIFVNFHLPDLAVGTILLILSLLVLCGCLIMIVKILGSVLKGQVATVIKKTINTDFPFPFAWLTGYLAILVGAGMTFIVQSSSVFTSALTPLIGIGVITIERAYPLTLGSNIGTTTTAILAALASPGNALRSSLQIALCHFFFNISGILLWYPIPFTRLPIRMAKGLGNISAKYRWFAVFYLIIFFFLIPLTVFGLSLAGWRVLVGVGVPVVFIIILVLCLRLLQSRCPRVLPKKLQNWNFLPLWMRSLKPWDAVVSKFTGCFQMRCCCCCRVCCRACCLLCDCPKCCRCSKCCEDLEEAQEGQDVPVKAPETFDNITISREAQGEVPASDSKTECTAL
Chain of Construct 4 (chimeric human NaPi2b, swap in NaPi2c in 341-358) (human) (O95436 other isoform, or with tags, fused parts or gaps mutant): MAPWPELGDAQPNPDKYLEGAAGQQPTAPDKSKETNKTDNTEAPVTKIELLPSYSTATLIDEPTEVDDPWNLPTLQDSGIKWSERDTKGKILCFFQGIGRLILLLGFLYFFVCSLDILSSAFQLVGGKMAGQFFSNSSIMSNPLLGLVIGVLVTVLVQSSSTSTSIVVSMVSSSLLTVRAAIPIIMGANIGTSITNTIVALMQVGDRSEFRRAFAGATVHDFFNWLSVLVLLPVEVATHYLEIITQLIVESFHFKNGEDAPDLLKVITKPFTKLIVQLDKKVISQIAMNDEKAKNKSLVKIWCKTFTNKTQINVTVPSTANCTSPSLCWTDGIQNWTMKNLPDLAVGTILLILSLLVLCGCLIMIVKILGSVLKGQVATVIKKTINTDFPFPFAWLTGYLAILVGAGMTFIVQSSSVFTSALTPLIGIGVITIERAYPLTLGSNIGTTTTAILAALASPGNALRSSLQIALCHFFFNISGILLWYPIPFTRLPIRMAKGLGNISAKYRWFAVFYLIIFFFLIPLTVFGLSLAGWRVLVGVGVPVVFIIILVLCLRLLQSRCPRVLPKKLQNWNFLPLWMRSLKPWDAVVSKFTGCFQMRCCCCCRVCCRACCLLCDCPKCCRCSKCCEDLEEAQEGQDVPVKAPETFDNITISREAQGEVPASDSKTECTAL
Chain of Construct 3 (chimeric human NaPi2b, swap in NaPi2c in 304-321) (human) (O95436 other isoform, or with tags, fused parts or gaps mutant): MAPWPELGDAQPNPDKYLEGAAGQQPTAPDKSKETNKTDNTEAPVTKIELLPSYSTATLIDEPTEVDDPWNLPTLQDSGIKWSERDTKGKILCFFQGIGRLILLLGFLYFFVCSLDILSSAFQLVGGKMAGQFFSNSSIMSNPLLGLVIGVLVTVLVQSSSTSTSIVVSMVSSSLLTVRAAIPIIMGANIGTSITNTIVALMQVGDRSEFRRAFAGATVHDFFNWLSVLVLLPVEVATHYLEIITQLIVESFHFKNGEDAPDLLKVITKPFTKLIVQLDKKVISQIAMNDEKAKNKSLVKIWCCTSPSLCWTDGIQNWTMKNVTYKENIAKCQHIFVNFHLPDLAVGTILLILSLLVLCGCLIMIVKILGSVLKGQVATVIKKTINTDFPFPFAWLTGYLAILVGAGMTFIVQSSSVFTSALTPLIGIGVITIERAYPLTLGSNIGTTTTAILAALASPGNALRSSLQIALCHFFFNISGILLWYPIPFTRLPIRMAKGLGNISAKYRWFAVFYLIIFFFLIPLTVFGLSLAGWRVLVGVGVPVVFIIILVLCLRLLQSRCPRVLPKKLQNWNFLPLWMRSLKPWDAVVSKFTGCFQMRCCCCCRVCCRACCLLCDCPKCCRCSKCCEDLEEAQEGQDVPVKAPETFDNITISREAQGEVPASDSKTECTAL
Chain of Construct 2 (chimeric human NaPi2b, swap in NaPi2c in 280-301) (human) (O95436 other isoform, or with tags, fused parts or gaps mutant): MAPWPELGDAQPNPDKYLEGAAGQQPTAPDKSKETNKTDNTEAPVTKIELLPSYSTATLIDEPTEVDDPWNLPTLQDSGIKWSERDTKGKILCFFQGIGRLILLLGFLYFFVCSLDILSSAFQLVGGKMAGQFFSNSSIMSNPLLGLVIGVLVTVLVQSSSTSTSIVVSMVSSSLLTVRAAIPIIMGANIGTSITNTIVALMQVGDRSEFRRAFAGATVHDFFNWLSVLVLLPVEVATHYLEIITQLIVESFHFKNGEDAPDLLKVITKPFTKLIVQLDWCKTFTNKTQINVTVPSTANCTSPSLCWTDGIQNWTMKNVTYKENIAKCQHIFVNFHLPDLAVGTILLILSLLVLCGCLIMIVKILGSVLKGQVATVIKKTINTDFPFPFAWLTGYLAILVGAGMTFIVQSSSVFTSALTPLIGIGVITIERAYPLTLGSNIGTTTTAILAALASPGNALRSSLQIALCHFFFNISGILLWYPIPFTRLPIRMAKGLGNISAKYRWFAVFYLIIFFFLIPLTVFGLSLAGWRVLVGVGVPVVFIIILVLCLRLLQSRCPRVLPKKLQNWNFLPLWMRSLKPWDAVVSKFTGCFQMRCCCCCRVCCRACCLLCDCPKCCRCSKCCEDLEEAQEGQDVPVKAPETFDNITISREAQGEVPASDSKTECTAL

% ADCC at 0.0192 nM (25 PBMCs:1 IGROV-1, 4 h) [1]: 5.96% | % ADCC at 0.48 nM (25 PBMCs:1 IGROV-1, 4 h) [1]: 14% | % ADCC at 12 nM (25 PBMCs:1 IGROV-1, 4 h) [1]: 14.4%
Substance: Lifastuzumab (v18993, wild-type Fc) (antibody)

ADCC EC50 (nM) (25 PBMCs:1 IGROV-1, 4-hour incubation) [1]: 0.035 nM | ADCP EC50 (nM) (2 Macs:1 IGROV-1, 2-hour incubation) [1]: 0.043 nM
Substance: v18992 (Fc wild-type MX-35) (antibody)

Background-Subtracted AF647 Mean Fluorescence Intensity [2]: 859 MFI | Background-Subtracted AF647 Mean Fluorescence Intensity [3]: 222 MFI | Background-Subtracted AF647 Mean Fluorescence Intensity [4]: 411 MFI | Background-Subtracted AF647 Mean Fluorescence Intensity [5]: 250 MFI | Background-Subtracted AF647 Mean Fluorescence Intensity [6]: 546 MFI | Background-Subtracted AF647 Mean Fluorescence Intensity [7]: 283 MFI | Background-Subtracted AF647 Mean Fluorescence Intensity [8]: 1 MFI | Background-Subtracted AF647 Mean Fluorescence Intensity [9]: 97 MFI | Background-Subtracted AF647 Mean Fluorescence Intensity [10]: 616 MFI | Background-Subtracted AF647 Mean Fluorescence Intensity [11]: 230 MFI | Background-Subtracted AF647 Mean Fluorescence Intensity [12]: 375 MFI | Background-Subtracted AF647 Mean Fluorescence Intensity [13]: 511 MFI | Background-Subtracted AF647 Mean Fluorescence Intensity [14]: 339 MFI | Background-Subtracted AF647 Mean Fluorescence Intensity [15]: 291 MFI | Background-Subtracted AF647 Mean Fluorescence Intensity [16]: 123 MFI | Background-Subtracted AF647 Mean Fluorescence Intensity [17]: 107 MFI | Background-Subtracted AF647 Mean Fluorescence Intensity [18]: 99 MFI | Background-Subtracted AF647 Mean Fluorescence Intensity [19]: 70 MFI | Background-Subtracted AF647 Mean Fluorescence Intensity [20]: 40 MFI | Background-Subtracted AF647 Mean Fluorescence Intensity [21]: 146 MFI | Background-Subtracted AF647 Mean Fluorescence Intensity [22]: 119 MFI | Background-Subtracted AF647 Mean Fluorescence Intensity [23]: 666 MFI | Background-Subtracted AF647 Mean Fluorescence Intensity [24]: 369 MFI | Background-Subtracted AF647 Mean Fluorescence Intensity [25]: 596 MFI
Substance: reference anti-NaPi2a antibody (polyclonal rabbit anti-human SLC34A1; Atlas Biotechnologies Inc; Cat. No. HPA051255)

% Inhibition vs. irrelevant mAb [26]: 0% | % Inhibition vs. irrelevant mAb [27]: 0% | % Inhibition vs. irrelevant mAb [28]: 0% | % Inhibition vs. irrelevant mAb [29]: 0%
Substance: v16955 (Palivizumab, anti-RSV, negative control of Example 9) (antibody)

Source: US20260232827A1, “ANTIBODY-DRUG CONJUGATES TARGETING NAPI2B AND METHODS OF USE” (Zymeworks BC Inc., priority 2023, published 2026)
